{"source": "paper PMC10641266", "about": "“Sequence tolerance of immunoglobulin variable domain framework regions to noncanonical intradomain disulfide linkages” (The Journal of Biological Chemistry, 2023)"}
{"target": "Clostridioides difficile toxin A (Clostridioides difficile, strain not …, UniProt P16154)", "assay": "SPR", "settings": "both partners purified", "units": {"Kd": "nM", "koff": "s⁻¹", "kon": "M⁻¹ s⁻¹"}}
{"binder": "A26.8 VHH, wild-type (canonical Cys23-Cys104 disulfide linkage only) (VHH) VHH: QVKLEESGGGLVQAGGSLRLSCAASERTFSRYPVAWFRQAPGAEREFVAVISSTGTSTYYADSVKGRFTISRDNAKVTVYLQMNNLKREDTAVYFCAVNSQRTRLQDPNEYDYWGQGTQVTVSS", "Kd": 16.5, "koff": 0.0259, "kon": "1.57e+06"}
{"binder": "A26.8 VHH with engineered Cys4-Cys118 pair (VHH) VHH: QVKCEESGGGLVQAGGSLRLSCAASERTFSRYPVAWFRQAPGAEREFVAVISSTGTSTYYADSVKGRFTISRDNAKVTVYLQMNNLKREDTAVYFCAVNSQRTRLQDPNEYDYCGQGTQVTVSS", "Kd": 43.4}
{"binder": "A26.8 VHH with engineered Cys22-Cys88 disulfide linkage (VHH) VHH: QVKLEESGGGLVQAGGSLRLCCAASERTFSRYPVAWFRQAPGAEREFVAVISSTGTSTYYADSVKGRFTISRDNAKVTVCLQMNNLKREDTAVYFCAVNSQRTRLQDPNEYDYWGQGTQVTVSS", "Kd": 18.7, "koff": 0.028, "kon": "1.5e+06"}
{"binder": "A26.8 VHH with engineered Cys24-Cys86 disulfide linkage (VHH) VHH: QVKLEESGGGLVQAGGSLRLSCCASERTFSRYPVAWFRQAPGAEREFVAVISSTGTSTYYADSVKGRFTISRDNAKVCVYLQMNNLKREDTAVYFCAVNSQRTRLQDPNEYDYWGQGTQVTVSS", "Kd": 43.6, "koff": 0.0271, "kon": 621000}
{"binder": "A26.8 VHH with engineered Cys6-Cys119 disulfide linkage (VHH) VHH: QVKLECSGGGLVQAGGSLRLSCAASERTFSRYPVAWFRQAPGAEREFVAVISSTGTSTYYADSVKGRFTISRDNAKVTVYLQMNNLKREDTAVYFCAVNSQRTRLQDPNEYDYWCQGTQVTVSS", "Kd": 12.6, "koff": 0.0691, "kon": "5.5e+06"}
{"binder": "A26.8 VHH with engineered Cys4-Cys25 disulfide linkage (VHH) VHH: QVKCEESGGGLVQAGGSLRLSCACSERTFSRYPVAWFRQAPGAEREFVAVISSTGTSTYYADSVKGRFTISRDNAKVTVYLQMNNLKREDTAVYFCAVNSQRTRLQDPNEYDYWGQGTQVTVSS", "Kd": 12.6, "koff": 0.062, "kon": "4.93e+06"}
